Measurements: the supplement of paper PMC11246515
± gives the standard deviation of the averaged measurements.

Assay: total protein half-life in vivo (active degradation + dilution); higher = more stable protein
[1] = E. coli NCM3722 delta-clpP delta-lon delta-hslV, growth: N-lim chemostat, doubling time 6 h
[2] = wild type E. coli NCM3722, growth: C-lim chemostat, doubling time 3 h
[3] = wild type E. coli NCM3722, growth: C-lim chemostat, doubling time 12 h
[4] = wild type E. coli NCM3722, growth: N-lim chemostat, doubling time 12 h
[5] = E. coli NCM3722 delta-hslV, growth: N-lim chemostat, doubling time 6 h
[6] = E. coli NCM3722 delta-lon, growth: N-lim chemostat, doubling time 6 h
[7] = E. coli NCM3722 delta-smpB, growth: N-lim chemostat, doubling time 6 h
[8] = wild type E. coli NCM3722, growth: C-lim chemostat, doubling time 6 h
[9] = wild type E. coli NCM3722, growth: P-lim chemostat, doubling time 6 h
[10] = wild type E. coli NCM3722, growth: P-lim chemostat, doubling time 12 h

Row | Sequence | total protein half-life in vivo [1] [h] | total protein half-life in vivo [2] [h] | total protein half-life in vivo [3] [h] | total protein half-life in vivo [4] [h] | total protein half-life in vivo [5] [h] | total protein half-life in vivo [6] [h] | total protein half-life in vivo [7] [h] | total protein half-life in vivo [8] [h] | total protein half-life in vivo (wild type E. coli NCM3722, growth: N-lim chemostat, doubling time 6 h) [h] | total protein half-life in vivo [9] [h] | total protein half-life in vivo [10] [h] | total protein half-life in vivo (E. coli NCM3722 delta-clpP, growth: N-lim chemostat, doubling time 6 h) [h]
1 | MMHRLNLNGYEPDRHHEAAVAFCIHAGTDELTSPVHQHRKGQLILALHGAITCTVENALWMVPPQYAVWIPGGVEHSNQVTANAELCFLFIEPSAVTMPTTCCTLKISPLCRELILTLANRTTTQRAEPMTRRLIQVLFDELPQQPQQQLHLPVSSHPKIRTMVEMMAKGPVEWGALGQWAGFFAMSERNLARLIVKETGLSFRQWRQQLQLIMALQGLVKGDTVQKVAHTLGYDSTTAFITMFKKGLGQTPGRYIARLTTVSPQSAKPDPRQ | 4.97 ± 0.56 |  |  |  |  |  |  |  |  |  |  | 
2 | MNNHATVQSSAPVSAAPLLQVSGALIAIIALILAAAWLVKRLGFAPKRTGVNGLKISASASLGARERVVVVDVEDARLVLGVTAGQINLLHKLPPSAPTEEIPQTDFQSVMKNLLKRSGRS | > 8 | > 4 | 8.29 | 1.64 |  |  |  |  |  |  |  | 
3 | MSNKPFIYQAPFPMGKDNTEYYLLTSDYVSVADFDGETILKVEPEALTLLAQQAFHDASFMLRPAHQKQVAAILHDPEASENDKYVALQFLRNSEIAAKGVLPTCQDTGTAIIVGKKGQRVWTGGGDEETLSKGVYNTYIEDNLRYSQNAALDMYKEVNTGTNLPAQIDLYAVDGDEYKFLCVAKGGGSANKTYLYQETKALLTPGKLKNFLVEKMRTLGTAACPPYHIAFVIGGTSAETNLKTVKLASAHYYDELPTEGNEHGQAFRDVQLEQELLEEAQKLGLGAQFGGKYFAHDIRVIRLPRHGASCPVGMGVSCSADRNIKAKINREGIWIEKLEHNPGQYIPQELRQAGEGEAVKVDLNRPMKEILAQLSQYPVSTRLSLTGTIIVGRDIAHAKLKELIDAGKELPQYIKDHPIYYAGPAKTPAGYPSGSLGPTTAGRMDSYVDLLQSHGGSMIMLAKGNRSQQVTDACHKHGGFYLGSIGGPAAVLAQQSIKHLECVAYPELGMEAIWKIEVEDFPAFILVDDKGNDFFQQIVNKQCANCTK | 5.77 ± 0.79 | 3.08 ± 0.042 | 9.34 ± 1.8 | 5.98 ± 0.31 | 4.08 ± 0.13 | 4.19 ± 0.42 | 3.86 ± 0.25 | 5.65 ± 0.69 | 4.28 ± 0.48 | 5.73 | 11.2 ± 0.73 | 
4 | MYAAKGTQAYAQIGVESAVMSASQQQLVTMLFDGVLSALVRASLFMQDNNQQGKGVSLSKAINIIENGLRVSLDEESKDELTQNLIALYSYMVRRLLQANLRNDVSAVEEVEALMRNIADAWKESLLSPSLIQDPV |  | 0.207 ± 0.029 |  |  |  |  |  |  |  |  |  | 
5 | MNEFFPLASAAGMTVGLAVCALIVGLALAMFFAVWESAKWRPVAWAGSALVTILRGLPEILVVLFIYFGSSQLLLTLSDGFTINLGFVQIPVQMDIENFDVSPFLCGVIALSLLYAAYASQTLRGALKAVPVGQWESGQALGLSKSAIFFRLVMPQMWRHALPGLGNQWLVLLKDTALVSLISVNDLMLQTKSIATRTQEPFTWYIVAAAIYLVITLLSQYILKRIDLRATRFERRPS [P0AE34] | 7.86 | 2.92 ± 0.51 | 11.9 ± 0.15 | 11.5 ± 2.6 | 6.66 ± 0.82 | 6.45 |  | 6.02 ± 0.79 |  | 6.78 | 12.3 ± 0.57 | 6.25
6 | MSHYHEQFLKQNPLAVLGVLRDLHKAAIPLRLSWNGGQLISKLLAITPDKLVLDFGSQAEDNIAVLKAQHITITAETQGAKVEFTVEQLQQSEYLQLPAFITVPPPTLWFVQRRRYFRISAPLHPPYFCQTKLADNSTLRFRLYDLSLGGMGALLETAKPAELQEGMRFAQIEVNMGQWGVFHFDAQLISISERKVIDGKNETITTPRLSFRFLNVSPTVERQLQRIIFSLEREAREKADKVRD | 5.94 ± 0.77 | 1.21 ± 0.24 | 2.88 ± 0.52 |  |  |  | > 8 | 1.87 ± 0.3 |  |  |  | 
7 | MSRSQNLRHNVINQVIDDMARGHIPSPLPSQSALAEMYNISRTTVRHILSHLRECGVLTQVGNDYVIARKPDHDDGFACTTASMSEQNKVFEQAFFTMINQRQLRPGETFSELQLARAAGVSPVVVREYLLKFGRYNLIHSEKRGQWSMKQFDQSYAEQLFELREMLETHSLQHFLNLPDHDPRWLQAKTMLERHRLLRDNIGNSFRMFSQLDRDFHSLLLSAADNIFFDQSLEIISVIFHFHYQWDESDLKQRNIIAVDEHMTILSALICRSDLDATLALRNHLNSAKQSMIRSINENTRYAH |  | 0.713 |  |  |  |  |  | 1.15 |  |  |  | 
